# Values quoted from earlier work as cited in PMC10539808.
# Target: Lys66 (UniProt position 148, FTKKMKENAKK)
# Conditions: not stated (quoted literature value; no ligand mentioned)
substance,measurement,value
"Staphylococcal nuclease (SNase), Delta+PHS/V66K variant (Staphylococcus aureus; P117G;H124L;S128A;del44-49;G50F;V51N;V66K)",pKa,5.7 and ∼ 5.6
